From PMC9482650, “Quantitative fragmentomics allow affinity mapping of interactomes” (Nature Communications, 2022)

Tests used:
Assay in all cases: holdup assay
Design in all cases: key: below the threshold = too weak to quantify, mostly under pKd 3.1 to 4
Conditions in all cases: plain residues with an end cap or a label only (N-terminal biotin on a linker: ado-ado)
APBA2_2, Q99767 = target: T1, APBA2_2, Q99767
T1 sequence (Q99767 654-744, limits assumed, looked up): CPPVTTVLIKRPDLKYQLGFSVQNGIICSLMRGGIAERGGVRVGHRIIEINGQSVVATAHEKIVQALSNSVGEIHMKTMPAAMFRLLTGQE

DLG2_3, Q15700 = target: DLG2_3, Q15700
DLG4_2, P78352 = target: DLG4_2, P78352
FRMPD1, Q5SYB0 = target: T2, FRMPD1, Q5SYB0
T2 sequence (Q5SYB0 52-145, limits assumed, looked up): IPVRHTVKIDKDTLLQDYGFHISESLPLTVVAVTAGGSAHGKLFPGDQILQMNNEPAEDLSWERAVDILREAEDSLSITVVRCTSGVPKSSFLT

FRMPD3, Q5JV73 = target: FRMPD3, Q5JV73
FRMPD4, Q14CM0 = target: FRMPD4, Q14CM0
GRID2IP_1, A4D2P6 = target: GRID2IP_1, A4D2P6
GRID2IP_2, A4D2P6 = target: GRID2IP_2, A4D2P6
GRIP1_4, Q9Y3R0 = target: T3, GRIP1_4, Q9Y3R0
T3 sequence (Q9Y3R0 467-571, limits assumed, looked up): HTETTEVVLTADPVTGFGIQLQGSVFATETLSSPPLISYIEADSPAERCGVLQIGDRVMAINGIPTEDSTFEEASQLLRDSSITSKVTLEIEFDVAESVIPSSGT

GRIP1_7, Q9Y3R0 = target: T4, GRIP1_7, Q9Y3R0
T4 sequence (Q9Y3R0 999-1096, limits assumed, looked up): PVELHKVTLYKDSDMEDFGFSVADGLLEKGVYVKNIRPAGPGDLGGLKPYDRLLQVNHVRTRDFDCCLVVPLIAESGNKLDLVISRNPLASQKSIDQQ

IL16_1, Q14005 = target: IL16_1, Q14005
Inadl_5, Q8NI35 = target: Inadl_5, Q8NI35
LIN7A, O14910 = target: T5, LIN7A, O14910
T5 sequence (O14910 103-200, limits assumed, looked up): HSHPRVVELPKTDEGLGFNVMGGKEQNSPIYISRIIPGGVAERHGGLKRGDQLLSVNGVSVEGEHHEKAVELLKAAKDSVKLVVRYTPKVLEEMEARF

LIN7B, Q9HAP6 = target: T6, LIN7B, Q9HAP6
T6 sequence (Q9HAP6 88-185, limits assumed, looked up): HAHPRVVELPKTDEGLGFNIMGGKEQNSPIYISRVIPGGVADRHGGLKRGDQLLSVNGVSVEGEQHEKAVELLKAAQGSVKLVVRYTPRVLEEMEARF

LNX1_1, Q8TBB1 = target: LNX1_1, Q8TBB1
LNX1_3, Q8TBB1 = target: LNX1_3, Q8TBB1
MAGI2_3, Q86UL8 = target: MAGI2_3, Q86UL8
MAGI2_4, Q86UL8 = target: MAGI2_4, Q86UL8
MAGI2_6, Q86UL8 = target: MAGI2_6, Q86UL8
MAST1, Q9Y2H9 = target: MAST1, Q9Y2H9
PCLO, Q9Y6V0 = target: T7, PCLO, Q9Y6V0
T7 sequence (Q9Y6V0 4491-4600, limits assumed, looked up): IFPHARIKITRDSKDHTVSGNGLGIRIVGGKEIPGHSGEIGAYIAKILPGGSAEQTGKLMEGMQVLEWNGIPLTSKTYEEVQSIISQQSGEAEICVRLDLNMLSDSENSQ

PDZD7_3, Q9H5P4 = target: T8, PDZD7_3, Q9H5P4
T8 sequence (Q9H5P4 857-944, limits assumed, looked up): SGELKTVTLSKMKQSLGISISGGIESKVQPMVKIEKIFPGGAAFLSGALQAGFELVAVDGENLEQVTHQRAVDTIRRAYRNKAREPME

PDZRN4_1, Q6ZMN7 = target: PDZRN4_1, Q6ZMN7
PTPN13_1, Q12923 = target: T9, PTPN13_1, Q12923
T9 sequence (Q12923 1088-1188, limits assumed, looked up): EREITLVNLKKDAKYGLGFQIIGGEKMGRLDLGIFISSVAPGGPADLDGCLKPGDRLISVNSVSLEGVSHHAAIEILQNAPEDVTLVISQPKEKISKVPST

SCRIB_1, Q14160 = target: SCRIB_1, Q14160
TIAM2, Q8IVF5 = target: T10, TIAM2, Q8IVF5
T10 sequence (Q8IVF5 885-986, limits assumed, looked up): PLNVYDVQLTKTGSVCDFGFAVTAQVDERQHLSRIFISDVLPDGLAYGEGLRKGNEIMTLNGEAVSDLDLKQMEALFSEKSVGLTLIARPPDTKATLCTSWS

TJP1_2, Q07157 = target: TJP1_2, Q07157
Sequence of TJP1_2, Q07157 (Q07157 181-274): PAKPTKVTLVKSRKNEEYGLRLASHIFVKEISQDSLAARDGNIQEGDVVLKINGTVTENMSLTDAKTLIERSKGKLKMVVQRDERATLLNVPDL

Sequence of MAGI2_4, Q86UL8 (Q86UL8 772-865): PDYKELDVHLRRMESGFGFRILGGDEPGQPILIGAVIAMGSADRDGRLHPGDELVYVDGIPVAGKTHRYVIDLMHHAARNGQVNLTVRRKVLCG
Sequence of FRMPD3, Q5JV73 (Q5JV73 12-100): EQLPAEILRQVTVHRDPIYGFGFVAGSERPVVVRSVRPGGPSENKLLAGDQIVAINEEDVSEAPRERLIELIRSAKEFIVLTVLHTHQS
Sequence of SCRIB_1, Q14160 (Q14160 718-814): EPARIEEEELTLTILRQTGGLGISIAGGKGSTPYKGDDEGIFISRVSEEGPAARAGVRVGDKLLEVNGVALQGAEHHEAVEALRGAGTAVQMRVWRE
Sequence of MAST1, Q9Y2H9 (Q9Y2H9 962-1065): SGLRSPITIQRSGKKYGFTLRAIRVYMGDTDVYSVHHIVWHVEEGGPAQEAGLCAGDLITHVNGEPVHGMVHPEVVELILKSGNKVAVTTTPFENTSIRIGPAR
Sequence of GRID2IP_1, A4D2P6 (A4D2P6 1-87): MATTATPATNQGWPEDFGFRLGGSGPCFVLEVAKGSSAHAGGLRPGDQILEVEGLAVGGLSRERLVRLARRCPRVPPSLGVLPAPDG
Sequence of Inadl_5, Q8NI35 (Q8NI35 673-780): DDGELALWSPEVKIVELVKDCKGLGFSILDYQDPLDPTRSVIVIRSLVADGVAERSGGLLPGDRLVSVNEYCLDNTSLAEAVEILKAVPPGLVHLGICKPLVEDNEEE
Sequence of GRID2IP_2, A4D2P6 (A4D2P6 272-370): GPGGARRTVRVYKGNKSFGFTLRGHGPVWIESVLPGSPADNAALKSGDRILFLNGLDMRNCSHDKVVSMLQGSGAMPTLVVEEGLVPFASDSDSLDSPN
Sequence of DLG4_2, P78352 (P78352 155-259): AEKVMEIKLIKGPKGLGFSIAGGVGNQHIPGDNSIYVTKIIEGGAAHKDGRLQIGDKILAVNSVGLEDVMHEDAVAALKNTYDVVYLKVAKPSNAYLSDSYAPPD
Sequence of FRMPD4, Q14CM0 (Q14CM0 67-160): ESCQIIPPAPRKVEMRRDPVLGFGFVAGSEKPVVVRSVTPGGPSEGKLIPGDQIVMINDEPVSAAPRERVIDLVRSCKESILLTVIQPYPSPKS
Sequence of PDZRN4_1, Q6ZMN7 (Q6ZMN7 213-318): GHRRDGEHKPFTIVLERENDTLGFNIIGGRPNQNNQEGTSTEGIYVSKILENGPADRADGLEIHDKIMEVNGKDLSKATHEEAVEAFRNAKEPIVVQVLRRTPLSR
Sequence of IL16_1, Q14005 (Q14005 210-306): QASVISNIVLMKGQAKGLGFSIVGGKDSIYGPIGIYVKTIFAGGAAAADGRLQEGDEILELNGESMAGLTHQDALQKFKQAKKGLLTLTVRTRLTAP
Sequence of LNX1_1, Q8TBB1 (Q8TBB1 261-371): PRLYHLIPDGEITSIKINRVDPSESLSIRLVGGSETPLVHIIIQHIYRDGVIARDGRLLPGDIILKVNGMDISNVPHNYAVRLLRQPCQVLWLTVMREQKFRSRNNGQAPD
Sequence of MAGI2_3, Q86UL8 (Q86UL8 600-682): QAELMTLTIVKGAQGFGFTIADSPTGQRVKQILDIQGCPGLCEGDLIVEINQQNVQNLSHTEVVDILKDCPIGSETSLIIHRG
Sequence of LNX1_3, Q8TBB1 (Q8TBB1 500-596): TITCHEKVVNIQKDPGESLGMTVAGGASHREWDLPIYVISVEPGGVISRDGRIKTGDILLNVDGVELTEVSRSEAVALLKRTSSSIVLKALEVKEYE
Sequence of MAGI2_6, Q86UL8 (Q86UL8 1141-1229): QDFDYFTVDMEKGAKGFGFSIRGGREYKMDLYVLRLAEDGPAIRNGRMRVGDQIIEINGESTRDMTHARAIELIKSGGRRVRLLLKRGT

pKd (APBA2_2, Q99767): below the threshold
pKd (DLG2_3, Q15700): 3.77
pKd (DLG4_2, P78352): below the threshold
pKd (FRMPD1, Q5SYB0): below the threshold
pKd (FRMPD3, Q5JV73): below the threshold
pKd (FRMPD4, Q14CM0): below the threshold
pKd (GRID2IP_1, A4D2P6): below the threshold
pKd (GRID2IP_2, A4D2P6): below the threshold
pKd (GRIP1_4, Q9Y3R0): below the threshold
pKd (GRIP1_7, Q9Y3R0): below the threshold
pKd (IL16_1, Q14005): below the threshold
pKd (Inadl_5, Q8NI35): below the threshold
pKd (LIN7A, O14910): below the threshold
pKd (LIN7B, Q9HAP6): 3.74
pKd (LNX1_1, Q8TBB1): below the threshold
pKd (LNX1_3, Q8TBB1): below the threshold
pKd (MAGI2_3, Q86UL8): below the threshold
pKd (MAGI2_4, Q86UL8): below the threshold
pKd (MAGI2_6, Q86UL8): 3.56
pKd (MAST1, Q9Y2H9): 3.68
pKd (PCLO, Q9Y6V0): below the threshold
pKd (PDZD7_3, Q9H5P4): 3.92
pKd (PDZRN4_1, Q6ZMN7): below the threshold
pKd (PTPN13_1, Q12923): below the threshold
pKd (SCRIB_1, Q14160): below the threshold
pKd (TIAM2, Q8IVF5): 3.98
pKd (TJP1_2, Q07157): below the threshold
B1: TECPR2, O15040 (peptide)
chain: EDLEDEWEVI
